In one data set the target is T1, At3g50210 (2-ODD-C23.1) (Arabidopsis thaliana, UniProt Q84MB6).
T1 construct: gene 2ODDC23.1
T1 sequence (Q84MB6 1-332): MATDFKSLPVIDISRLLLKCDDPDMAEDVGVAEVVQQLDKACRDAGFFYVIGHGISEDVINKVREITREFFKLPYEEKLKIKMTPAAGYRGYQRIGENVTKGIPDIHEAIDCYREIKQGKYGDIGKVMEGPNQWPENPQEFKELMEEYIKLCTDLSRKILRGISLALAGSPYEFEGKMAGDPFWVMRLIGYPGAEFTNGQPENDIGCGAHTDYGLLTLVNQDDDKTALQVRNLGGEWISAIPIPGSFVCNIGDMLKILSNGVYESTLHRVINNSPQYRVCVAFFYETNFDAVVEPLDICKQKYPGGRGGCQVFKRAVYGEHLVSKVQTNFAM
In words: inhibition of homoarginine-dependent O2 consumption. It counts as biochemical. The following applies: 0.5 mM 2-oxoglutarate, pH 7.2, 30 °C.

In data set [1] the target is T2, Din11s (2-ODD-C23.2, short variant of Din11) (Arabidopsis thaliana, UniProt Q8H113).
T2 construct: gene 2ODDC23.2
T2 sequence (Q8H113 26-357): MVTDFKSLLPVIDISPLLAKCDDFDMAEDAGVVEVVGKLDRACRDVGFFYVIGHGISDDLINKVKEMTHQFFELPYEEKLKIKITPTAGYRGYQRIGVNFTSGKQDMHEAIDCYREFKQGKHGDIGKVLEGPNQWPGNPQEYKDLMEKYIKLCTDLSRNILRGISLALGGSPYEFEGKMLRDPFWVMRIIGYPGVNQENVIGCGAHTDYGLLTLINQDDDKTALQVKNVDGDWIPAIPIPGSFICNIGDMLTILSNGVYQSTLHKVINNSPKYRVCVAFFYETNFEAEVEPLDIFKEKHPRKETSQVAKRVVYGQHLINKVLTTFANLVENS
The description is as above. The class given is biochemical. The settings on record: competitive versus homoarginine; 1 mM canavanine, 0.5 mM 2-oxoglutarate, pH 7.2, 30 °C.

The target of data set [2] is T3, 2-ODD33 (Os2-ODD33, rice 2-ODD-C23 ortholog) (Oryza sativa, UniProt Q6K332).
T3 sequence (Q6K332 1-328): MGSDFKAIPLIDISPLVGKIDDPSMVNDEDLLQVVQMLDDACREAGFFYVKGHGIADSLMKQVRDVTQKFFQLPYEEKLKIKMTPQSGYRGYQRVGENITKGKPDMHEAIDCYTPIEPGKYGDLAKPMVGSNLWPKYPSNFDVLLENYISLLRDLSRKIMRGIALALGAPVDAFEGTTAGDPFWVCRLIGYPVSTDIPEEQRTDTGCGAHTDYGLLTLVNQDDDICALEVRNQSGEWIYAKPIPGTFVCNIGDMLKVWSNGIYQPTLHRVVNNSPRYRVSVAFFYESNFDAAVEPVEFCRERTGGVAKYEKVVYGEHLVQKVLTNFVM
Kind of data set: guanidine production in expressing E. coli culture, LC-MS. The class given is cell-based. The following applies: 1 mM homoarginine in medium, 18 °C overnight.

Data set [3] has as its target T4, Gm2-ODD-C23 (soybean 2-ODD-C23) (Glycine max, UniProt A0A0R4J5R0).
T4 construct: gene 2ODDC23
T4 sequence (A0A0R4J5R0 1-331): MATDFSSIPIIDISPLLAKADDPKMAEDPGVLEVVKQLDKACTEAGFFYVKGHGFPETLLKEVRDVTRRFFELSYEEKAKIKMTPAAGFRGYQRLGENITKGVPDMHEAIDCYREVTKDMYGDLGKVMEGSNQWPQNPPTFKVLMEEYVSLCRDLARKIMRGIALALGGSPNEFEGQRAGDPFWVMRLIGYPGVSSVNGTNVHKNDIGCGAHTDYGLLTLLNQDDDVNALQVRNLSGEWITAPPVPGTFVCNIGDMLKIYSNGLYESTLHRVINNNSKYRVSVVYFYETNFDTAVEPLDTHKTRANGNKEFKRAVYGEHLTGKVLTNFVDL
The description is as above. The class given is cell-based. The settings on record: 1 mM homoarginine in medium, 18 °C overnight.

Substrate in data set [4]: NC(=O)c1ccc[n+]([C@@H]2O[C@H](COP(=O)(O)OP(=O)(O)OC[C@H]3O[C@@H](n4cnc5c(N)ncnc54)[C@H](O)[C@@H]3O)[C@@H](O)[C@H]2O)c1
In words: NAD+ reduction, spectrophotometric. The class given is biochemical, Arabidopsis thaliana. The following applies: 1 mM AASA/P6C, pH 7.5, 35 °C, varied: cofactor.

Substrate in data set [5]: N[C@@H](CCCC=O)C(=O)O
Kind of data set: NAD+ reduction, spectrophotometric. The following applies: 1 mM NAD+, pH 7.5, 35 °C, substrate is the AASA/P6C equilibrium mixture. The class given is biochemical, Arabidopsis thaliana.

Substrate in data set [6]: N=C(N)NCCCC[C@H](N)C(=O)O
Kind of data set: O2 consumption, Clark-type electrode. It counts as biochemical, Arabidopsis thaliana. The settings on record: 0.5 mM 2-oxoglutarate, Fe2+, ascorbate, pH 7.2, 30 °C.

Substrate in data set [7]: O=C(O)[C@@H]1CCCC=N1
In words: NADH oxidation, spectrophotometric. The class given is biochemical, Oryza sativa. The following applies: NADH as electron donor (fixed 1 mM), pH 7.5, 35 °C.

Substrate in data set [8]: N=C(N)NCCC[C@H](N)C(=O)O
Kind of data set: O2 consumption, Clark-type electrode. The settings on record: 0.5 mM 2-oxoglutarate, Fe2+, ascorbate, pH 7.2, 30 °C. It counts as biochemical, Arabidopsis thaliana.

Turning to `N=C(N)NCCC[C@H](N)C(=O)O` [arginine], the “inhibition of homoarginine-dependent O2 consumption” value at At3g50210 (2-ODD-C23.1) (competitive versus homoarginine, 1 mM arginine) is “we detected a competitive inhibition of Din11s and At3g50210”.

With `N=C(N)NOCC[C@H](N)C(=O)O` [canavanine], the “inhibition of homoarginine-dependent O2 consumption” value on At3g50210 (2-ODD-C23.1) (mixed type versus homoarginine, 1 mM canavanine) is reported as “the inhibition of At3g50210 was of the mixed type”; in data set [1] it was “canavanine showed competitive inhibition of the reaction of Din11s with homoarginine”.

On to `N=C(N)NCCCC[C@H](N)C(=O)O` [homoarginine], for which the “guanidine production in expressing E. coli culture, LC-MS” value in [2] is “orthologs from soybean and rice (2-ODD33) mediated homoarginine-dependent guanidine accumulation”; in data set [3], “orthologs from soybean and rice (2-ODD33) mediated homoarginine-dependent guanidine accumulation”.

B1: AtALDH7B4 (At1g54100, AASA-DH) (Arabidopsis thaliana) (protein)
chain: MGSANNEYEFLSEIGLTSHNLGSYVAGKWQANGPLVSTLNPANNQPIAQVVEASLEDYEQGLKACEEAAKIWMQVTAPKRGDIVRQIGDALRSKLDYLGRLLSLEMGKILAEGIGEVQEVIDMCDFAVGLSRQLNGSVIPSERPNHMMLEMWNPLGIVGVITAFNFPCAVLGWNACIALVCGNCVVWKGAPTTPLITIAMTKLVAEVLEKNNLPGAIFTAMCGGAEIGEAIAKDTRIPLVSFTGSSRVGSMVQQTVNARSGKTLLELSGNNAIIVMDDADIQLAARSVLFAAVGTAGQRCTTCRRLLLHESVYDKVLEQLLTSYKQVKIGNPLEKGTLLGPLHTPESKKNFEKGIEVIKSQGGKILTGGKAVEGEGNFVEPTIIEISADAAVVKEELFAPVLYVLKFKSFGEAVAINNSVPQGLSSSIFTRNPENIFRWIGPLGSDCGIVNVNIPTNGAEIGGAFGGEKATGGGREAGSDSWKQYMRRSTCTINYGNELPLAQGINFG
In general, Km refers to the concentration of substrate that gives half-maximal velocity. On to B1, for which the Km in data set [4] was 324 ± 17 µM; in data set [5], 11.9 ± 1.0 µM.

B2: At3g49630 (2-ODD-C23.3) (Arabidopsis thaliana) (protein)
chain: MATNFKSLLPVIDISPLVVKCDDANMAEDAGVAEVVGKLDRACRDAGFFYVIGHGISEDFIRKVRVMSHQFFELPYEEKLKIKITPAAGYRGYQRIGLNLTNGKQDMHEAIDCYKEFKQGKHGDIGKVMEGANQWPENPQEYKELMEEYIKLCIDLSRNILRGISLALGGSPYEFEGKMLTDPFWIMRILGYPGVNQENVIGCGAHTDYGLLSLINQDDDKTALQVRDLAGDWIPVIPIPGSFVCNIGDMLKILSNGVYESTLHRVINNSPRYRVCVGFFYETNFDAAVEPLDIFKEKYPGKGTSQVFKRVVYGEHLVHKLQTTFQNLVEHS
notes: b44 prints At3g49620, apparently a slip for At3g49630
For B2, in data set [6], the Km worked out at 4600 ± 200 µM.

B3: OsP5CR (pyrroline-5-carboxylate reductase from rice) (Oryza sativa Japonica Group) (protein)
chain: MAAPPQPVPAPAAASPEVFRLGFIGPGNLAESIARGVAASGVLPATAIRTAPHRRPERAEAFSSIGAHILETNAQVVDDSDVIVISVKPQIVRQVLVELKPLLSEEKLLVSIAAGIKMEDLQGWSGHRRFIRVMPNTPSAVGQAASVMCLGEMATENDENRVRSLFSAIGKVWTAEEKYFDAVTGLSGSGPAYIFLAIEAMADGGVAAGLPRDLALGLASQTVLGAATMVNKTGKHPGQLKDMVTSPAGTTITGIQELEKGAFRGTLINAVVAATKRCRELSQS
notes: recombinant, purified
With B3, the Km in [7] amounted to 173 ± 18 µM.

B4: At3g50210 (2-ODD-C23.1) (Arabidopsis thaliana) (protein)
chain: MATDFKSLPVIDISRLLLKCDDPDMAEDVGVAEVVQQLDKACRDAGFFYVIGHGISEDVINKVREITREFFKLPYEEKLKIKMTPAAGYRGYQRIGENVTKGIPDIHEAIDCYREIKQGKYGDIGKVMEGPNQWPENPQEFKELMEEYIKLCTDLSRKILRGISLALAGSPYEFEGKMAGDPFWVMRLIGYPGAEFTNGQPENDIGCGAHTDYGLLTLVNQDDDKTALQVRNLGGEWISAIPIPGSFVCNIGDMLKILSNGVYESTLHRVINNSPQYRVCVAFFYETNFDAVVEPLDICKQKYPGGRGGCQVFKRAVYGEHLVSKVQTNFAM
With B4, in [6], the Km came out at 780 ± 150 µM.

B5: Din11s (2-ODD-C23.2, short variant of Din11) (Arabidopsis thaliana) (protein)
chain: MVTDFKSLLPVIDISPLLAKCDDFDMAEDAGVVEVVGKLDRACRDVGFFYVIGHGISDDLINKVKEMTHQFFELPYEEKLKIKITPTAGYRGYQRIGVNFTSGKQDMHEAIDCYREFKQGKHGDIGKVLEGPNQWPGNPQEYKDLMEKYIKLCTDLSRNILRGISLALGGSPYEFEGKMLRDPFWVMRIIGYPGVNQENVIGCGAHTDYGLLTLINQDDDKTALQVKNVDGDWIPAIPIPGSFICNIGDMLTILSNGVYQSTLHKVINNSPKYRVCVAFFYETNFEAEVEPLDIFKEKHPRKETSQVAKRVVYGQHLINKVLTTFANLVENS
As for B5, the Km in data set [6] was found to be 1900 ± 300 µM; in [8], 6000 ± 5100 µM.
